Measured values as given in PMC8822174, “Evidence for the Rapid and Divergent Evolution of Mycoplasmas: Structural and Phylogenetic Analysis of Enolases” (Frontiers in Molecular Biosciences, 2021).

Target: the molecule itself
Test: native gel or EMSA

Protein | stoichiometry N
Mycoplasma pneumoniae enolase (enzyme, also called Mp Eno; M. pneumoniae Eno) MSAQTGTDLFKIADLFAYQVFDSRGFPTVACVVKLASGHTGEAMVPSGASTGEKEAIELRDGDPKAYFGKGVSQAVQNVNQTIAPKLIGLNATDQAAIDALMIQLDGTPNKAKLGANAILAVSLAVAKAAASAQKTSLFKYLANQVMGLNKTEFILTVPMLNVINGGAHADNNIDFQEFMIMPLGANSMHQALKMASETFHALQKLLKQRGLNTNKGDEGGFAPNLKLAEEALDLMVEAIKAAGYQPGSDIAIALDVAASEFYDDTTKRYVFKKGIKAKILDEKEWSLTTAQMIAYLKKLTEQYPIISIEDGLSEHDWEGMETLTKTLGQHIQIVGDDLYCTNPAIAEKGVAHKATNSILIKLNQIGTLTETIKAINIAKDANWSQVISHRSGETEDTTIADLAVAACTGQIKTGSMSRSERIAKYNRLLQIELELGNNAKYLGWNTFKNIKPQKA | 2
Mycoplasma bovis enolase (enzyme, also called Mb Eno; M. bovis Eno) MPIIERIQAREILDSRGNPTVQVEVTTDYEITGVANVPSGASTGSREALELRDKGTKYEGNWFGGKGVMTAVDNVNEKIAPELIGMSVFDQRAIDKLMIELDGTATKSKLGANAILGVSLAVARAAATELGMPLYRYIGGANAHTLPLPMLNVLNGGEHASNTVDFQEFMIMPVGAKSLREALQMANKVFHNLAKLLKKAGYGTQVGDEGGFAPNCKSHEEVLDYLVEAIKVAGYTPATSGKNAIAIALDAACSELYDENSKKYTFKKLKQAIAEKRSGFEHLDNVKLEYTTDELIEYFGKLIDKYPIISIEDGLAESDWEGFAKMTAKFGSKVQIVGDDLTVTNPKLLEKAIEQKSMNAILIKLNQIGSLSETMDAINKAQKANMACVVSHRSGETEDTTIADLAVAFNTGQIKTGSMSRTDRIAKYNRLLVIEEELGEQSEFEGSKAFYNIK | 8
